The results in this text go back to paper doi:10.1101/2023.04.03.535215.

This assay has as its target Recombinant SARS-CoV-2 spike protein (SARS-CoV-2) (UniProt P0DTC2). Nature of the assay: ELISA. A general note: ELISA stands for enzyme-linked immunosorbent assay.

For “Native human surfactant protein A (from UniProt Q8IWL2 21-248) (natural protein)”, the percent decrease of binding in 10 mM EDTA turned out to be 46%.
